Source: article PMC9127371, “Assembly of nuclear dimers of PI3K regulatory subunits is regulated by the Cdc42-activated tyrosine kinase ACK” (The Journal of Biological Chemistry, 2022)
Square brackets hold non-standard residues; d marks the D form. Ends that are not written are not given here. * marks the point of attachment. 5FAM = O=C1OC2(c3ccc(O)cc3Oc3cc(O)ccc32)c2ccc(C(=O)*)cc21; pY = N[C@@H](Cc1ccc(OP(=O)(O)O)cc1)C(=O)O

B1: [5-FAM]-SD-[pY]-MNMTP, CD28 peptide (peptide)
peptide: 5FAM-SD[pY]MNMTP
notes: Known p85 SH2 target peptide from CD28; also called control peptide from CD28; source: synthetic peptide; bought: Biomatik
B2: [5-FAM]-TEDQ-[pY]-SLMEDE, phosphorylated peptide based on p85β (peptide)
peptide: 5FAM-TEDQ[pY]SLMEDE
notes: also called β peptide; p85β (pYSLM) peptide; source: synthetic peptide; bought: Cambridge Research Biochemicals
B3: [5-FAM]-TEDQ-[pY]-SLVEDE, phosphorylated peptide based on p85α (peptide)
peptide: 5FAM-TEDQ[pY]SLVEDE
notes: also called α peptide; p85α (pYSLV) peptide; source: synthetic peptide; bought: Biomatik

Experiments:
Assay in all cases: fluorescence polarisation; SH2 domain titrated into 5-FAM-labelled peptide (20 nM CD28, YSLV, pYSLV; 40 nM YSLM, pYSLM), 298 K, 96-well plates, single site binding isotherm
Details in all cases: both partners purified
p85β cSH2 (603–712) = molecular target: T1, p85β cSH2 (603–712) (mouse, UniProt O08908 603-712)
T1 construct: PI3K regulatory subunit p85β, mouse, C-terminal SH2 domain, residues 603-712; also called cSH2 domain of p85β; source: E. coli, purified (glutathione-agarose, HRV 3C cleavage, S75 size exclusion)
T1 sequence (looked up): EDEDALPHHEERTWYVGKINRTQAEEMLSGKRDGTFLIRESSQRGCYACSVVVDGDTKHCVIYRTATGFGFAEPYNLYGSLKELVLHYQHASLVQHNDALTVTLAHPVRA

p85α cSH2 (614–720) = molecular target: T2, p85α cSH2 (614–720) (human, UniProt P27986 614-720)
T2 construct: PI3K regulatory subunit p85α, human, C-terminal SH2 domain, residues 614-720; also called cSH2 domain of p85α; source: E. coli, purified (glutathione-agarose, HRV 3C cleavage, S75 size exclusion)
T2 sequence (P27986 614-720): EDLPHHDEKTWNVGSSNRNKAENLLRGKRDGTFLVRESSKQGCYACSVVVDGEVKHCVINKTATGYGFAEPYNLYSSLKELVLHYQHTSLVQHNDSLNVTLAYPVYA

p85β nSH2 (312–425) = molecular target: T3, p85β nSH2 (312–425) (mouse, UniProt O08908 312-425)
T3 construct: PI3K regulatory subunit p85β, mouse, N-terminal SH2 domain, residues 312-425; also called nSH2 domain of p85β; WT nSH2 domain of p85β; source: E. coli, purified (Ni-NTA, HRV 3C cleavage, size exclusion); not shown: His6, N-terminal, cleaved; MBP, N-terminal, cleaved
T3 sequence (O08908 312-425): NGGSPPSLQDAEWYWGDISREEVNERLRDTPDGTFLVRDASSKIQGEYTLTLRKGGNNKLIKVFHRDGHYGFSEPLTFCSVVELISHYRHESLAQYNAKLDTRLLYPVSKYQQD

p85α nSH2 R358M = molecular target: T4, p85α nSH2 R358M (human, UniProt P27986 325-430, R358M)
T4 construct: PI3K regulatory subunit p85α, human, N-terminal SH2 domain, residues 325-430, with R358M; also called R358M variant; R358M SH2–null mutant; source: E. coli, purified
T4 sequence (P27986 325-430 R358M): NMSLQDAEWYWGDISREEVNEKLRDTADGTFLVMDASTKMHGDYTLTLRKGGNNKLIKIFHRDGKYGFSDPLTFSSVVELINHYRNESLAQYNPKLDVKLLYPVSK

p85α nSH2 (325–430) = molecular target: T5, p85α nSH2 (325–430) (human, UniProt P27986 325-430)
T5 construct: PI3K regulatory subunit p85α, human, N-terminal SH2 domain, residues 325-430; also called nSH2 domain of p85α; WT nSH2 domain of p85α; source: E. coli, purified (glutathione-agarose, HRV 3C cleavage, S75 size exclusion)
T5 sequence (P27986 325-430): as the sequence (P27986 325-430 R358M) above, with M34R counted along it

| Binder | Kd (p85β cSH2 (603–712)) [nM] | Kd (p85α cSH2 (614–720)) [nM] | Kd (p85β nSH2 (312–425)) [nM] | Kd (p85α nSH2 R358M) [nM] | Kd (p85α nSH2 (325–430)) [nM] |
| --- | --- | --- | --- | --- | --- |
| B1 | 100 | 43 |  |  |  |
| B2 |  | 656 | 52 | 2900 | 82 |
| B3 |  | 84000 | 9000 |  | 2400 |
